Measurements taken from article PMC12282130.

Target: PlMYB73-nLUC (Paeonia lactiflora)

- Dual-LUC reporter in N. benthamiana leaves: activation of PlTPS1pro (LUC/REN) by PlMYB73 together with PlMYB70, against PlMYB70 alone: 3.45 fold
Substance: cLUC-PlMYB70 (natural protein)
